Data on two molecules can be found in publication PMC12691694, “Bacillus velezensis LoaP promotes antitermination by antagonizing NusA”.

In the data set the target is T1, NusA (Bacillus velezensis, UniProt A7Z4T1 1-373).
T1 sequence: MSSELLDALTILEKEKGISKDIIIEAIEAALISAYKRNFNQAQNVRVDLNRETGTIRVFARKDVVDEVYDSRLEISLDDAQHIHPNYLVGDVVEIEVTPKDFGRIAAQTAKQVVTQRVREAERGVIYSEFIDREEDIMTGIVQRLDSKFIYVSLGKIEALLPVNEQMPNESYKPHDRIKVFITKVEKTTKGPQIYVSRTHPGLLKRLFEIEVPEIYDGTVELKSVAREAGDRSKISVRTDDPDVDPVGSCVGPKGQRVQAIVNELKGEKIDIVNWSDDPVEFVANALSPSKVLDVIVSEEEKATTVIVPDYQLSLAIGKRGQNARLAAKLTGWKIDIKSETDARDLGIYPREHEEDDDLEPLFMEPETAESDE
The experiment in a line: DRaCALA filter binding; 50 mM NaH2PO4 pH 7.2, 100 mM NaCl, 0.1 mM EDTA, 1 mM MgCl2, 100 ug/mL BSA, 25 ug/mL total yeast RNA, 2.5 nM labeled RNA, 45 min, room temperature. The following applies: protein: recombinant; tags: N-terminal His10-SUMO removed by bdSENP1; label: 5'-32P; hairpin.

Take GGAAACACAGUUUGCGAUUUUUAAACCUGUGCUGAAUCGCAAACUGUG (structured_RNA) [dfnA* mutant terminator (dfnA mut)]: the binding result is “binds”.

B1: dfnA terminator (structured_RNA)
RNA: GGAAACACAAUGCGUUUGCGAUUUUUAAACCUGUGCUGAAUCGCAAACGCGUUUGUG
As to B1, the binding result is “binds”.
